From paper PMC12412097, “Structure and Nitrite Reductase Activity of the Di-iron Protein ScdA in Staphylococcus aureus” (Journal of the American Chemical Society, 2025)

Columns and labels:
[1] = biological target: the molecule itself; assay: SEC; Superdex 75 Increase 10/300 GL, 20 mM Tris, 150 mM NaCl, pH 7.6; no reducing agent (WT also with MV radicals); oligomer peak at 9.2 mL, dimer peak at 10.9 mL
[2] = biological target: the molecule itself; assay: crystal structure
[3] = biological target: the molecule itself; assay: SEC; as a1, protein treated with the reducing agent DTT

B1: ScdA S77E variant (wild-type cysteines) (enzyme)
chain: not shown
notes: also called S77E mutant; not shown: His6, N-terminal, kept
B1: binds [1].

B2: CF ScdA S77C (enzyme)
chain: not shown
notes: not shown: His6, N-terminal, kept
B2 was tested, and the “stoichiometry N” value [1] was 2.

B3: tag-free variant of CF ScdA (tagless ScdA) (enzyme)
chain: not shown
notes: also called CF ScdA (crystal); source: E. coli, purified (Q Sepharose, SEC)
In the case of B3, the “stoichiometry N” value [2] is reported as 2.

B4: wild-type (WT) ScdA, S. aureus, N-terminal His6 tag (enzyme)
chain: not shown
notes: also called as-isolated WT; reduced WT; not shown: His6, N-terminal, kept
With B4 the “stoichiometry N” value [3] was 2.

B5: cysteine-free (CF) ScdA variant (C30A/C31A/C191A), N-terminal His6 tag (enzyme)
chain: not shown
notes: also called CF variant; not shown: His6, N-terminal, kept
B5 was tested, and the “stoichiometry N” value [1] was 2.
